From US20220175647A1, “COSMETIC PREPARATION CONTAINING ULTRAVIOLET WAVELENGTH CONVERSION MATERIAL AND WATER-SOLUBLE THICKENING AGENT” (Shiseido Company, Ltd., priority 2019, published 2022)
Where “and” joins values, the source holds several entries; their conditions need not be identical. Equal values may be shown once.

Key:
[1] = Absorption and emission spectrum peak wavelengths of UV wavelength conversion substances; assay type: physicochemical
Human dermal fibroblasts [2] = test: Cell activity (AlamarBlue) of cells UV-irradiated through a solution of UV wavelength conversion substance; assay type: cell-based; settings: UV 0 to 100 mJ/cm^2, FIG. 3
Experimental: The UV wavelength conversion substances (3) and (4) were dispersed in alcohol to prepare 5% and 10% dispersions.
(§1) 1. Human dermal fibroblasts and human skin keratinocytes purchased from Kurabo Industries Ltd. were used. A cell suspension (1 mL) stored in liquid nitrogen was thawed in a water bath (37° C.) to an extent that small ice pellets remained, and then diluted with 9 mL of warm medium. 2. The diluted suspension was mixed gently and then transferred to a T75 flask and incubated overnight at 37° C. 3. The next day, the medium was replaced with 10 mL of fresh medium. 4. The medium was replaced periodically (once every 2 days for fibroblasts and once every 2 to 3 days for keratinocytes) and cell proliferation was continued. Meanwhile, the cells were observed using a microscope, and it was confirmed that the cells grew in the correct form. 5. After the cells reached about 80% confluence, the cells were passaged. The cells were passaged by washing the cells once with 10 mL of warm PBS, adding 5 mL of warm trypsin to a T75 flask, covering the bottom of the flask with a trypsin solution, followed by aspirating at room temperature for 1 minute. 6. The flask was allowed to stand in an oven at 37° C. for (maximum) 2 minutes for fibroblasts and (maximum) 7 minutes for keratinocytes. The cells were observed using a microscope and confirmed to be small and oval. 7. […]

Human dermal fibroblasts [3] = test: Restoration of cell activity decreased by prior UV irradiation (AlamarBlue); assay type: cell-based; settings: pre-irradiation 400 mJ/cm^2 without substance, then UV 0 to 200 mJ/cm^2 through 0.4% or 2% C-phycocyanin; effect equivalent at both concentrations; FIG. 5
Experimental: as §1, with “7. Thereafter, the side of the T75 flask was lightly tapped to release the cells.” for “7.”

Row | Substance | absorption spectrum peak wavelength [1] [nm] | emission spectrum peak wavelength [1] | cell activity (relative fluorescence intensity, AlamarBlue) (Human dermal fibroblasts [2]; 0.4% C-phycocyanin solution) | cell activity (relative fluorescence intensity, AlamarBlue) (Human dermal fibroblasts [2]; 2% C-phycocyanin solution, compared to no UV irradiation) | cell activity after activity was once decreased by UV (Human dermal fibroblasts [3])
1 | B-phycoerythrin | 305 | 570 nm and 610 nm | – | – | –
2 | C-phycocyanin | 350 | 640 nm and 700 nm | the decrease in cell activity was suppressed | the cell activity was even increased | cell activity was recovered
